Test results reported in patent US6420522 (VERTEX PHARMACEUTICALS, dated 2002).
Like-named read-outs stand apart in the source and are kept apart here. Starred links: 1 amine or outer side, 2 acyl side, 3 side chain; linkers in the order of their positions; H or OH if unused. Non-standard residues stand in square brackets, D forms with d. No end group written: not given here. *: point of attachment. Asp‑al = Asp with the carboxyl reduced to aldehyde (3-amino-4-oxobutanoic acid), O=C[C@H](CC(=O)[*:3])N[*:1]; benzoxazol‑2‑yl ketone = Asp carboxyl replaced by 2-benzoxazolyl ketone, c1ccc2oc(*)nc2c1; Pro(4R-allyloxy) = 4(R)-allyloxyproline, C=CCO[C@@H]1C[C@@H](C(=O)[*:2])N([*:1])C1; X3 = (2,6-dichlorophenylmethyloxy)methyl ketone, Clc1cccc(Cl)c1COC*; X1 = 7‑methoxybenzoxazol‑2‑yl ketone, COc1cccc2nc(*)oc12; X2 = 4‑methoxybenzoxazol‑2‑yl ketone, COc1cccc2oc(*)nc12; X4 = (2-chlorobenzyloxy)methyl ketone, Clc1ccccc1COC*; Pro(4-benzyloxy) = 4-benzyloxyproline; Pro(4-phenoxy) = 4-phenoxyproline; Hyp = O=C(O)[C@@H]1C[C@@H](O)CN1; Cbz = O=C(OCc1ccccc1)*

T1: interleukin-1β converting enzyme (ICE) in human peripheral blood mononuclear cells (human, UniProt P29466 1-404, limits assumed)
T1 sequence (looked up): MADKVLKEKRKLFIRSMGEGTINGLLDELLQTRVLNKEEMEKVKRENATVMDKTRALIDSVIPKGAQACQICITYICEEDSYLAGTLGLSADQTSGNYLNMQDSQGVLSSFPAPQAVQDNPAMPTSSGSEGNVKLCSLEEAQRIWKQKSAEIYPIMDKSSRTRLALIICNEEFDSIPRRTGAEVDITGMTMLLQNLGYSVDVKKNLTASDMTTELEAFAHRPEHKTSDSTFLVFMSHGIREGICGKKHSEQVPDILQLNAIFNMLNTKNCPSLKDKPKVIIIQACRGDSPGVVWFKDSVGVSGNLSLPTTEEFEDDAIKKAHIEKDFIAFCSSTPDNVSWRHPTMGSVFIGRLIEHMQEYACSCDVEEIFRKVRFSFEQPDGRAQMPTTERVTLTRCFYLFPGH

T2: interleukin-1β converting enzyme (ICE), as used in the enzyme assays (UniProt P29466 120-297; P29466 317-404, limits assumed)
T2 construct: also called IL-1β Converting Enzyme
T2 sequence (looked up) 1: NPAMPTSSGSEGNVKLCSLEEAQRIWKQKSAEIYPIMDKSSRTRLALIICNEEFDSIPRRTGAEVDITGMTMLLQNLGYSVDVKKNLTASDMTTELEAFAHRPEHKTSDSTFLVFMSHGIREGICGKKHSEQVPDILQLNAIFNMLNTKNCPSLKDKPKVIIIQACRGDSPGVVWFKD
T2 sequence (looked up) 2: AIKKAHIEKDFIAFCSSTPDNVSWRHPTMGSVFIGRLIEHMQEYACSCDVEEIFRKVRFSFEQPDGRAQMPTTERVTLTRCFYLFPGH

B1: N-(N-Acetyl-tyrosinyl-valinyl-(4(R)-allyloxy prolinyl))-3(S)-amino-4-oxobutanoic acid (peptide)
peptide: Ac-YV[Pro(4R-allyloxy)][Asp‑al]
modifications: not fully specified (C-terminus)
notes: also called 85
B2: N-Acetyl-(S)-valinyl-(4-(S)-phenoxy)prolinyl-3(S)-amino-4-(7-methoxybenzoxazol-2-yl)-4-oxo-butanoic acid (peptide)
peptide: Ac-Val-Pro-Asp-X1
modifications: not fully specified (residues 2, 3)
B3: N-[N-Acetyl-tyrosinyl-valinyl-(4-hydroxyprolinyl)]-3-amino-4-oxobutanoic acid (peptide)
peptide: Ac-YV[Hyp][Asp‑al]
modifications: not fully specified (C-terminus)
B4: (3S) N-(N-Benzyloxycarbonyl-(S)-valinyl-(S)-alaninyl)-3-amino-4-(2-benzoxazolyl)-4-oxobutanoate (peptide)
peptide: Cbz-Val-Ala-Asp-{benzoxazol‑2‑yl ketone}
SMILES: CC(C)[C@H](NC(=O)OCc1ccccc1)C(=O)N[C@@H](C)C(=O)N[C@@H](CC(=O)O)C(=O)c1nc2ccccc2o1
B5: N-[N-Acetyl-tyrosinyl-valinyl-(4-benzyloxy)prolinyl]-3-amino-4-oxobutanoic acid (peptide)
peptide: Ac-YV[Pro(4-benzyloxy)][Asp‑al]
modifications: not fully specified (C-terminus)
B6: (R,S) N-[N-(Phenylmethyloxy)carbonyl-valinyl-alaninyl]-3-amino-5-(2,6-dichlorophenylmethyloxy)-4-oxo-pentanoic acid (peptide)
peptide: Cbz-Val-Ala-Asp-X3
modifications: also: Asp-derived residue (R,S)
B7: N-(N-Acetyl-tyrosinyl-valinyl-(4-phenoxyprolinyl))-3-amino-4-oxobutanoic acid (peptide)
peptide: Ac-YV[Pro(4-phenoxy)][Asp‑al]
modifications: not fully specified (C-terminus)
B8: (R,S) N-[N-(Acetyl)tyrosinyl-valinyl-alaninyl]-3-amino-5-(2,6-dichlorophenylmethyloxy)-4-oxo-pentanoic acid (peptide)
peptide: Ac-YVAD-X3
modifications: also: Asp-derived residue (R,S)
notes: also called 84b
B9: N-Acetyl-(S)-tyrosinyl-(S)-valinyl-(S)-alaninyl-3(S)-amino-5-(2-chlorobenzyloxy)-4-oxo-pentanoic acid (peptide)
peptide: Ac-YVAD-X4
SMILES: CC(=O)N[C@@H](Cc1ccc(O)cc1)C(=O)N[C@H](C(=O)N[C@@H](C)C(=O)N[C@@H](CC(=O)O)C(=O)COCc1ccccc1Cl)C(C)C
notes: also called 89
B10: (3S) N-(N-Acetyl-(S)-tyrosinyl-(S)-valinyl-(S)-alaninyl)-3-amino-4-(2-(7-methoxybenzoxazolyl))-4-oxobutanoate (peptide)
peptide: Ac-YVAD-X1
SMILES: COc1cccc2nc(C(=O)[C@H](CC(=O)O)NC(=O)[C@H](C)NC(=O)[C@@H](NC(=O)[C@H](Cc3ccc(O)cc3)NC(C)=O)C(C)C)oc12
notes: also called 69a
B11: (3S) t-Butyl N-(N-acetyl-(S)-tyrosinyl-(S)-valinyl-(S)-alaninyl)-3-amino-4-(2-(4-methoxybenzoxazolyl))-4-oxobutanoate (peptide)
peptide: Ac-YVAD-X2
SMILES: COc1cccc2oc(C(=O)[C@H](CC(=O)O)NC(=O)[C@H](C)NC(=O)[C@@H](NC(=O)[C@H](Cc3ccc(O)cc3)NC(C)=O)C(C)C)nc12
notes: The printed name begins with 't-Butyl', but the compound was made by the method for the acid 69a and its printed formula C31H37N5O10 is that of the free acid; also called 69b

Assays:
[1] = biological target: interleukin-1β converting enzyme (ICE), as used in the enzyme assays (UniProt P29466); assay: ICE enzyme inhibition, UV-visible substrate Suc-YVAD-pNA
[2] = biological target: interleukin-1β converting enzyme (ICE), as used in the enzyme assays (UniProt P29466); assay: ICE enzyme inhibition, fluorescent substrate Ac-YVAD-AMC
[3] = biological target: T1, interleukin-1β converting enzyme (ICE) …; assay: cell-based or functional assay
[4] = biological target: T2, interleukin-1β converting enzyme (ICE), …; assay: ICE enzyme inhibition, UV-visible substrate Suc-YVAD-pNA
Procedure: Synthesis of analogous substrates is described by L. A. Reiter (Int. J. Peptide Protein Res. 43, 87–96 (1994)). […] Buffer, ICE and DMSO (if inhibitor is present) are added to the wells in the order listed. The components are left to incubate at room temperature for 15 minutes starting at the time that all components are present in all wells. The microtiter plate reader is set to incubate at 37° C. After the 15 minute incubation, substrate is added directly to the wells and the reaction is monitored by following the release of the chromophore (pNA) at 405–603 nm at 37° C. for 20 minutes. A linear fit of the data is performed and the rate is calculated in mOD/min. DMSO is only present during experiments involving inhibitors, buffer is used to make up the volume to 100 µl in the other experiments.

[5] = biological target: T2, interleukin-1β converting enzyme (ICE), …; assay: ICE enzyme inhibition, fluorescent substrate Ac-YVAD-AMC
Procedure: This assay is run essentially according to Thornberry et al. (Nature 356: 768–774 (1992)), using substrate 17 referenced in that article. […] The following components are mixed:
Buffer and ICE are added to the wells. The components are left to incubate at 37° C for 15 minutes in a temperature-controlled wellplate. […] A linear fit of the data for each well is performed and a rate is determined in fluorescence units per second.

[6] = biological target: T1, interleukin-1β converting enzyme (ICE) …; assay: cell-based or functional assay; remark: listed apart in the source
[7] = biological target: T1, interleukin-1β converting enzyme (ICE) …; assay: cell-based or functional assay; remark: listed apart in the source

Molecule | Ki [1] | Ki [4] | Cell IC50 (µM): inhibitor concentration at which 50% of mature IL-1β is detected in the supernatant [6] | also measured
N-[2-(N-Acetyl-tyrosinyl-valinyl)-(S)-1,2,3,4-tetrahydroisoquinoline-3-carbonyl]-3-amino-oxobutanoic acid (peptide) | 14 nM | – | – | –
N-(N-Acetyl-tyrosinyl-valinyl-pipecolyl)-3-amino-4-oxobutanoic acid (peptide) | 23 nM | – | – | Ki [2]: 4.7 nM
B1 | – | 3.5 nM | – | Cell IC50 (µM): inhibitor concentration at which 50% of mature IL-1β is detected in the supernatant [3]: 9.8 µM
B2 | 175 nM | – | – | Cell IC50 (µM): inhibitor concentration at which 50% of mature IL-1β is detected in the supernatant [3]: 4 µM
B3 | – | 12 nM | – | Ki [5]: 3.9 nM
B4 | 850 nM | – | 4.1 µM | –
B5 | – | 10 nM | – | Ki [5]: 2 nM
B6 | 100 nM | – | 3.3 µM | –
B7 | – | 7.2 nM | – | Ki [5]: 5.2 nM; Cell IC50 (µM): inhibitor concentration at which 50% of mature IL-1β is detected in the supernatant [7]: 2.6 µM
B8 | – | 19 nM | 0.5 µM | –
B9 | – | 18 nM | – | –
B10 | – | 11 nM | 0.735 µM | –
B11 | – | 50 nM | 0.745 µM | –
